Data on four molecules can be found in patent US20200164032A1 (WASHINGTON UNIVERSITY, published 2020).

In one test the target is T1, human CCL3 (human, UniProt P10147 23-92).
T1 construct: also called hCCL3
T1 sequence: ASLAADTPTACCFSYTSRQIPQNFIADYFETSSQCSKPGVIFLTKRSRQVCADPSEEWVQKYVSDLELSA
Nature of the test: SPR, R17 264GG(G)DS267 on CM5 chip, hCCL3 injected.

The target in a further test is T2, murine CCL3 (mouse, UniProt P10855 24-92).
T2 sequence: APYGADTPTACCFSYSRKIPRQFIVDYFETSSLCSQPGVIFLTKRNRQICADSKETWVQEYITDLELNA

A further test has as its target T3, murine CCL2 (mouse, UniProt P10148 24-148).
T3 construct: also called mCCL2
Nature of the test: SPR, mutant R17 on CM5 chip.

Test [1] has as its target CCL2 (species not given). Nature of the test: SPR, R17 variant on CM5 chip; column KDeq (nM).
Test [2] concerns the target CCL2 (species not given). The test is described as follows: SPR, R17 variant on CM5 chip; column kd x 10^-3 s-1.
Test [3] addresses CCL2 (species not given). Nature of the test: SPR, R17 variant on CM5 chip; column KD (nM), kinetic.
The target in test [4] is CCL2 (species not given). Nature of the test: SPR, R17 variant on CM5 chip; column ka x 10^6 M-1s-1.
Test [5] addresses CCL3 (species not given). Nature of the test: SPR, R17 variant on CM5 chip; column KDeq (nM); ka, kd, KD printed n/a.

T3 sequence (P10148 24-148 limits assumed): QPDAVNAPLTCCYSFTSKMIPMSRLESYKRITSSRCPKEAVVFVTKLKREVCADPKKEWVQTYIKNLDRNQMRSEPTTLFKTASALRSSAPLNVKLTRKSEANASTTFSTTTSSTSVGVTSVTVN

B1: R17 264GG(G)DS267 chemokine null mutant (264LIDS267 replaced by 264GG(G)DS267, with a glycine insert (receptor)
chain: GPVGEPVASEINEASKVSSRLLTQDILFRKDRQATISLPIKLPVEDIITQTCDKITYGPLKFLDLLEKETAVLPLSTDITCPACLGRAVLVGKWECPAHVAVNESDLTVFGPNKEEHVPQFVTVQQPSDGKMQRLFFAKFLGTEESLAVLRVPGPDGHLCIQEALIHFKELSGAGVCSLWKANDSREEGLEMKQVDCLETTVLENQTCIATTLSKKIYHRLYCGERLMTGGQVSTRVLLTALGFYKRQPYTFHRVPKGMVYVHGGGDSGSEDYMEYSECEEVTPGRYEDKQISYTFYTDLFQTADGEPVLASVWGTSGLKDSAYESCAFVIPTKGRRKLVPRRIMSKCYPFRLTYHPSTMTVRLDVRVEKHHGATDQGFVFLKMESGTYSEGREYYLDRVLWGEDSSTNNVLQ
In the case of B1, the binding result with human CCL3 is recorded as “no binding (tested: 100 nM)”.

B2: R17 266NAGAQ270 (R17 with 266DSGSE270 mutated to 266NAGAQ270), C-terminal His construct (receptor)
chain: GPVGEPVASEINEASKVSSRLLTQDILFRKDRQATISLPIKLPVEDIITQTCDKITYGPLKFLDLLEKETAVLPLSTDITCPACLGRAVLVGKWECPAHVAVNESDLTVFGPNKEEHVPQFVTVQQPSDGKMQRLFFAKFLGTEESLAVLRVPGPDGHLCIQEALIHFKELSGAGVCSLWKANDSREEGLEMKQVDCLETTVLENQTCIATTLSKKIYHRLYCGERLMTGGQVSTRVLLTALGFYKRQPYTFHRVPKGMVYVHLINAGAQDYMEYSECEEVTPGRYEDKQISYTFYTDLFQTADGEPVLASVWGTSGLKDSAYESCAFVIPTKGRRKLVPRRIMSKCYPFRLTYHPSTMTVRLDVRVEKHHGATDQGFVFLKMESGTYSEGREYYLDRVLWGEDSSTNNVLQ
In the test with murine CCL3, B2 showed a dissociation constant Kd of 2.9 nM, a koff of 0.061 s⁻¹, a kon of 3.1e+07 M⁻¹ s⁻¹ and a t1/2 of 11.2 s. In the test with murine CCL2, the binding result was “no binding”.

B3: R17GAG2 (R17 with residues 333 to 337 KGRRK mutated to DGEED), C-terminal His construct (receptor)
chain: GPVGEPVASEINEASKVSSRLLTQDILFRKDRQATISLPIKLPVEDIITQTCDKITYGPLKFLDLLEKETAVLPLSTDITCPACLGRAVLVGKWECPAHVAVNESDLTVFGPNKEEHVPQFVTVQQPSDGKMQRLFFAKFLGTEESLAVLRVPGPDGHLCIQEALIHFKELSGAGVCSLWKANDSREEGLEMKQVDCLETTVLENQTCIATTLSKKIYHRLYCGERLMTGGQVSTRVLLTALGFYKRQPYTFHRVPKGMVYVHLIDSGSEDYMEYSECEEVTPGRYEDKQISYTFYTDLFQTADGEPVLASVWGTSGLKDSAYESCAFVIPTDGEEDLVPRRIMSKCYPFRLTYHPSTMTVRLDVRVEKHHGATDQGFVFLKMESGTYSEGREYYLDRVLWGEDSSTNNVLQ
notes: not shown: C-terminal 8-His tag
On to B3, for which the Kd came out at 40 nM in test [1], 9.5 nM in test [3] and 0.31 nM in test [5]. Moreover, the koff in test [2] came to 0.012 s⁻¹. In test [4], this molecule had a kon of 1.2e+06 M⁻¹ s⁻¹.

B4: R17GAG1 (R17 with residues 29 to 32 RKDR mutated to EDDE), C-terminal His construct (receptor)
chain: GPVGEPVASEINEASKVSSRLLTQDILFEDDEQATISLPIKLPVEDIITQTCDKITYGPLKFLDLLEKETAVLPLSTDITCPACLGRAVLVGKWECPAHVAVNESDLTVFGPNKEEHVPQFVTVQQPSDGKMQRLFFAKFLGTEESLAVLRVPGPDGHLCIQEALIHFKELSGAGVCSLWKANDSREEGLEMKQVDCLETTVLENQTCIATTLSKKIYHRLYCGERLMTGGQVSTRVLLTALGFYKRQPYTFHRVPKGMVYVHLIDSGSEDYMEYSECEEVTPGRYEDKQISYTFYTDLFQTADGEPVLASVWGTSGLKDSAYESCAFVIPTKGRRKLVPRRIMSKCYPFRLTYHPSTMTVRLDVRVEKHHGATDQGFVFLKMESGTYSEGREYYLDRVLWGEDSSTNNVLQ
notes: as for B3
Consider B4, for which the figures for the Kd in test [1], in test [3] and in test [5] were 31 nM, 10 nM and 0.8 nM, respectively. In test [2], this molecule registered a koff of 0.0137 s⁻¹. In test [4], this molecule came in with an on-rate (kon) of 1.2e+06 M⁻¹ s⁻¹.
